This note sets out measurements from the supplement of paper PMC10567573.

± gives the standard deviation.

The series can be described thus: protein stability index of a GFP-peptide fusion (GPS, HEK-293T) (PSI 1-6); higher = more stable.
Setting [1] is: treatment: DMSO, c terminus: a fixed tail appended.
Setting [2] is: treatment: MLN4924 1 uM, 8 h, c terminus: a fixed tail appended.
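Note: 24-mer peptide tiles fused after GFP, lentivirally expressed, FACS-sorted into six equal bins by GFP/DsRed ratio, decoded by Illumina sequencing, PSI is the read-weighted mean bin number.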

The sequence PKAQPQTWKSGKQTMLSHYRPFYV [TRIM29] returned a protein stability index under setting [1] of 2.57 ± 0.17 and a protein stability index under setting [2] of 2.06 ± 0.39.

Turning to PKKIMPEAHSHYLYGHMLSAFRD [PPFIA4], the protein stability index by setting is: (treatment: DMSO, c terminus: native) 2.35 ± 0.23; (treatment: MLN4924 1 uM, 8 h, c terminus: native) 2.77 ± 0.35.

For the sequence PKNGRHAWIWHDCHRHYHSMEVFT [LOXL2], the protein stability index was 2.28 ± 0.24 under setting [1] and 2.4 ± 0.17 under setting [2].

Take PKYQLFVPQLVTGRCATRAFHRKS [RNF180]: the protein stability index is, setting by setting: under setting [1], 2.14 ± 0.34; under setting [2], 2.21 ± 0.28.

PLELLPGGPARPLGPGPAAPRLLK [CEBPD]: the protein stability index was determined as 4.33 ± 0.12 under setting [1] and 4.54 ± 0.14 under setting [2].

Regarding PLLLRLPRICQRNLMSLLMAVRPS [FANCE], the protein stability index runs as follows: under setting [1], 2.45 ± 0.34; under setting [2], 2.56 ± 0.062.

Take PLLSPLLASRNPCPWHYLHLSGSH [RSPH3]: the protein stability index worked out at 2.15 ± 0.23 under setting [1] and 2.01 ± 0.2 under setting [2].

PLMKPHRPWADTCSSSGKDGNLCL [HESX1] registered a protein stability index under setting [1] of 2.74 ± 0.16 and a protein stability index under setting [2] of 2.69 ± 0.21.

For PLPAAAVVHVSFPEVTSALLESLN [ZBTB22], the protein stability index under setting [1] was found to be 2.41 ± 0.25 and the protein stability index under setting [2] turned out to be 2.27 ± 0.26.

Consider PNLASDSDLSRRSSSTMSKSEYME [KCNA1], for which the protein stability index by setting is: under setting [1], 5.16 ± 0.27; under setting [2], 5.22 ± 0.16.

PNLVNLIEVFRRKRKMHLVFEYCD [CDKL4]: the protein stability index came to 2.06 ± 0.64 under setting [1] and 2.07 ± 0.3 under setting [2].

As for PNRVLAPEQSLKKTKTSEYPIIFV [SPANXN3], the protein stability index turned out to be 2.22 ± 0.17 under setting [1] and 2.12 ± 0.34 under setting [2].

In the case of PNTLYEGGYFKAHIKFPIDYPYSP [UBE2R2], the protein stability index was determined as 2.26 ± 0.13 under setting [1] and 2.21 ± 0.27 under setting [2].

With PNYTMEGERPEEGVAGGLNRNQGL [TCF25], the protein stability index came to 5.22 ± 0.15 under setting [1] and 5.22 ± 0.37 under setting [2].

As for PPEPLSQVSMWDQRWQDHQPLLPI [APBB1IP], the protein stability index runs as follows: under setting [1], 2.76 ± 0.75; under setting [2], 3.72 ± 1.1.

Consider PPITEVESQVFSEKLATDTSTFEA [ZNF232], for which the protein stability index runs as follows: under setting [1], 5.33 ± 0.2; under setting [2], 5.26 ± 0.083.

Sequence PPPPPPHNSGPPPPPARGRGAPPP [WASL] registered a protein stability index under setting [1] of 5.14 ± 0.2 and a protein stability index under setting [2] of 5.19 ± 0.16.

Turning to PPRGRSEAPDSLNGPLGPSEASIA [SMG5], the protein stability index is 5.07 ± 0.27 under setting [1] and 5.12 ± 0.14 under setting [2].

Turning to PPVLSFRLVHTTAIEHFQPNADLL [FCHO1], the protein stability index is, setting by setting: under setting [1], 2.54 ± 0.15; under setting [2], 2.17 ± 0.25.

As to PQAPPASRDEAALPELLLGALPVG [RETREG3], the protein stability index by setting is: under setting [1], 4.64 ± 0.087; under setting [2], 4.67 ± 0.16.

For PQDRYKAVWLIFFMLGLGTLLPWN [SLC29A1], the protein stability index runs as follows: under setting [1], 3 ± 0.27; under setting [2], 3.29 ± 0.37.

Take PQEKLWQQLRRGRYVEFNLLYDRG [CPOX]: the protein stability index amounted to 2.56 ± 0.11 under setting [1] and 2.55 ± 0.42 under setting [2].

Take PQGLFRGGKSGELEQEEERLSKEW [CHGA]: the protein stability index runs as follows: under setting [1], 5.19 ± 0.39; under setting [2], 5.42 ± 0.19.

For PRETLCTELVLSDCMLSEEGATLL [LRRC45], the protein stability index runs as follows: under setting [1], 3.65 ± 0.2; under setting [2], 3.83 ± 0.11.

Turning to PRMCRYVRERDRLGNEYPKLHYPE [CDC25A], the protein stability index runs as follows: under setting [1], 3.08 ± 0.12; under setting [2], 3.15 ± 0.34.

As for PRQADHDDHECCERVVINISGLRF [KCNA1], the protein stability index reads like this: under setting [1], 3.1 ± 0.086; under setting [2], 3.33 ± 0.27.

Take PSLAVNLADPYRSLKAPGARGPGP [JUNB]: the protein stability index under setting [1] came out at 4.01 ± 0.29 and the protein stability index under setting [2] stood at 3.83 ± 0.17.

As for PSLQHLCRMSIRRVMPTQEVQELP [WSB1], the protein stability index by setting is: under setting [1], 3.34 ± 0.43; under setting [2], 2.8 ± 0.35.

Consider PSPPPGSHYTSPSENMWNTGSTYN [CARM1], for which the protein stability index stood at 3.8 ± 0.43 under setting [1] and 3.81 ± 0.23 under setting [2].
